Here are results for three substances from patent publication US20250115926A1, “DEREGULATED DHS AND TYRA ENZYMES OF GRASSES ENABLE EFFICIENT PRODUCTION OF BOTH TYROSINE AND PHENYLALANINE” (priority 2023, published 2025).

One data set has as its system C=C(OP(=O)(O)O)C(=O)O. Description: purified protein, by the assay type. The following applies: other: 2 mM E4P, 37° C., pH 7.5.
The subject of data set [1] is O=C[C@H](O)[C@H](O)COP(=O)(O)O. Description: purified protein, by the assay type. The following applies: other: 1.5 mM PEP, 37° C., pH 7.5.
Method: (§1) To examine their functional properties, the recombinant DHS enzymes of Brachypodium were produced and characterized in vitro.
(§2) All DHS effectors tested were included in the initial reaction mixtures at a concentration of 0.5 mM, except for IC50 determination for arogenate and tryptophan, in which variable concentrations were used. To ensure at least 10 minutes of linear reaction, enzyme mass per reaction was carefully adjusted to between 100 to 300 ng (depending on the specific activity of each specific isoform) using DHS storage buffer supplemented with BSA. […] The enzymatic reaction was started with the addition of E4P (variable concentration, see below).
(§3) The DHS assay for UHPLC-MS quantification was set up using the same settings as described in the previous paragraph for the UV-based DHS assay, which guaranteed at least 10 minutes of reaction linearity. After a 10-minute incubation, 20 μL of the reactions (out of a total volume of 50 μL) were mixed into 80 μL of methanol, vortexed and transferred to vials for injection. Analysis of DAHP by UHPLC-MS was conducted using the same chromatographic settings as described for the UHPLC-MS analysis of soluble metabolites and compared with an authentic DAHP standard (Sta. Cruz biotechnology, cat. no. sc-216432).
Data set [2] relates to O=C[C@H](O)[C@H](O)COP(=O)(O)O. Description: DHS activity: kinetics and effector inhibition. Format: biochemical, Brachypodium distachyon. The following applies: other: 1.5 mM PEP, 37° C., pH 7.5.
Method: as §1, §2, §3

Chain of Brachypodium distachyon BdDHS2, SEQ ID NO: 5, recombinant (Brachypodium distachyon) (chain, as listed by the source): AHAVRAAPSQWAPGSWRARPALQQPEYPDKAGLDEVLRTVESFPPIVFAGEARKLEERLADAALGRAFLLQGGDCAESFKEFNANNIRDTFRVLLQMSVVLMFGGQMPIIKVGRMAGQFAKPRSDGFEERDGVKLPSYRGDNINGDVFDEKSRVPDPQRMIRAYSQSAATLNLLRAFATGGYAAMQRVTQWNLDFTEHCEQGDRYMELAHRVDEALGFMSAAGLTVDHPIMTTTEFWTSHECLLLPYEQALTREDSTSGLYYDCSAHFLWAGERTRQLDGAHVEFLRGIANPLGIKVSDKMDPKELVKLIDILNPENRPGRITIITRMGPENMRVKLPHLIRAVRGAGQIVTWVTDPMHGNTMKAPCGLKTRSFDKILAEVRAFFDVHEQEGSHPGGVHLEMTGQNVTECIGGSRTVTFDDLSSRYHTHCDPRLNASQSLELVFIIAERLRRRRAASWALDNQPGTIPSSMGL
Chain of Brachypodium distachyon BdDHS1b, SEQ ID NO: 3, recombinant (Brachypodium distachyon) (chain, as listed by the source): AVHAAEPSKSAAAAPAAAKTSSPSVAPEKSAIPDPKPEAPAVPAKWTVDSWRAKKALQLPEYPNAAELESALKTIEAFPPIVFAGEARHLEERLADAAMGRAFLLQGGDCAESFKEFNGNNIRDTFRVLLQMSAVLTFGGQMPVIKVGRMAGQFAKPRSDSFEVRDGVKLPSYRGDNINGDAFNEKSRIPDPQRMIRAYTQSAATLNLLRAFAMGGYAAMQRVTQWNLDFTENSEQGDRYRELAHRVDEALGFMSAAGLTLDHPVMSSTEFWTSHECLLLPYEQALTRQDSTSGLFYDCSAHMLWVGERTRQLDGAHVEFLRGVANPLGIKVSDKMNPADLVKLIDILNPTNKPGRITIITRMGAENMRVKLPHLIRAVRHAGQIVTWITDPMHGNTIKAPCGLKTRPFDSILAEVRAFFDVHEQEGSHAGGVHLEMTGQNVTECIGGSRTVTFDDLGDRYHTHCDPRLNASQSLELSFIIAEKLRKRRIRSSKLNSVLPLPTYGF
Chain of Brachypodium distachyon BdDHS1a, SEQ ID NO: 1, recombinant (Brachypodium distachyon) (chain, as listed by the source): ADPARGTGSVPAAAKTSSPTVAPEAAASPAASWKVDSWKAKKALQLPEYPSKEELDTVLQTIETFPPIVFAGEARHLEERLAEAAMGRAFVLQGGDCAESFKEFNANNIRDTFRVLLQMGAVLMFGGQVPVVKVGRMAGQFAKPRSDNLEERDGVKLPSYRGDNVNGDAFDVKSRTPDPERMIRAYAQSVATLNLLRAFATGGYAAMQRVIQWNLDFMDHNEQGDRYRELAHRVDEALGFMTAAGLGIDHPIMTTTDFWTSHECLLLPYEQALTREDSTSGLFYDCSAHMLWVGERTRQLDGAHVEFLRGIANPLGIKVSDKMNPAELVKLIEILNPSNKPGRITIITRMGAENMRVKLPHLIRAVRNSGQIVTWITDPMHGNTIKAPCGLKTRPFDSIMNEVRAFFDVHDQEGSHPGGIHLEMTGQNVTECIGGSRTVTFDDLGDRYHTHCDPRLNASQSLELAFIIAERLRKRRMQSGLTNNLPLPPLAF

In the case of “Brachypodium distachyon BdDHS1b, SEQ ID NO: 3, recombinant (Brachypodium distachyon)”, in the data set with C=C(OP(=O)(O)O)C(=O)O, the Km was found to be 200 µM, the kcat was found to be 11.3 s⁻¹ and the kcat/Km is 57200 M⁻¹ s⁻¹.
On to “Brachypodium distachyon BdDHS1a, SEQ ID NO: 1, recombinant (Brachypodium distachyon)”, for which, in data set [1], the K0.5 was determined as 0.55 mM and the kcat stood at 17 s⁻¹. Moreover, in the data set on C=C(OP(=O)(O)O)C(=O)O, the Km amounted to 130 µM, the kcat is 17 s⁻¹ and the kcat/Km came to 126000 M⁻¹ s⁻¹.
Take “Brachypodium distachyon BdDHS2, SEQ ID NO: 5, recombinant (Brachypodium distachyon)”: in the data set on C=C(OP(=O)(O)O)C(=O)O, the Km was determined as 190 µM, the kcat was 5.6 s⁻¹ and the kcat/Km is 29000 M⁻¹ s⁻¹. In data set [2], the K0.5 amounted to 0.51 mM and the kcat was 5.6 s⁻¹.
